From PMC314469, “Protein Interaction Networks by Proteome Peptide Scanning” (PLoS Biology, 2004)

T1: Abp1 SH3 (ABP1_YEAST), P15891
T1 chain: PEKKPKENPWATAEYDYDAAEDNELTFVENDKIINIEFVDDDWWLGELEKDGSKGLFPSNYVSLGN


Molecular target: T1, Abp1 SH3 (ABP1_YEAST), P15891
Assay: SPOT array

Row | Binder | normalised SPOT signal, Boehringer light units (BLU); mean over the file's lines of this peptide
1 | RSRHEVPKRSPEKP [YNL278W 803-816] | 76.3
2 | SATPRRASSRPTRP [YNR049C 146-159] | 88.9
3 | SASSNASDSGPQRP [YDL106C 66-79] | 172
4 | SKGARFLPAPHRP [YGR154C 61-73] | 1020
5 | SSSALLRRTIPKRP [YDL142C 9-22] | 253
6 | SEWNWPQPVILKP [YKR002W 264-276] | 54.4
7 | SGNKEAIPALIKP [YKL157W 770-782] | 82.8
8 | SKLKITRNPNPSKP [YHR208W 26-39] | 115
9 | SDINQLQGVYPSRP [YBR026C 64-77] | 98.7
10 | SDTNDIKTPHPERP [YER169W 626-639] | 114
11 | SIKEEKKPFDKKP [YMR284W 586-598] | 92.3
12 | SDISAMQPVNPKP [YPR182W 5-17] | 124
13 | SIQSKIMLESPKKP [YJL147C 308-321] | 289
14 | SDDYEELATIPYRP [YOR168W 585-598] | 45.7
15 | RVSITKQPKALKP [YIL074C 41-53] | 244
16 | SASSTPIPVLGKP [YOR098C 775-787] | 100
17 | SANAKLHRTKPVKP [YLR430W 1001-1014] | 138

Row | Binder | normalised SPOT signal, Boehringer light units (BLU); mean over the file's lines of this peptide
18 | RYTYLPSPSYFRP [YPL066W 175-187] | 276
19 | RSMTDILPLSSKP [YCR066W 152-164] | 5410
20 | SKQFLLSPIFAKP [YHR099W 1329-1341] | 169
21 | SLEHDGRPKTIKP [YKL077W 80-92] | 56.6
22 | SAPQLTVPEPSKP [YNL034W 543-555] | 52.2
23 | SGDAALVKFVPSKP [YBR118W 394-407] | 52.8
24 | SHKQKRTLANPDKP [YPR079W 40-53] | 164
25 | SETKSVPSIEPFKP [YER032W 653-666] | 62.5
26 | RSRLQEKELPPIKP [YBL007C 612-625] | 88.5
27 | SDSEENEPRRKKP [YMR014W 341-353] | 93.2
28 | RWINKIGPLFDKP [YDR176W 652-664] | 287
29 | RSSTPSHPRMPKP [YBR245C 789-801] | 1930
30 | SSFTSQDSQKPLKP [YDL240W 56-69] | 113
31 | SSSLPLPKLRPPRP [YKL097C 59-72] | 5200
32 | SKIVTLPPTIFKP [YOR341W 710-722] | 159
33 | SEKPEETPNPLKP [YKL077W 65-77] | 85.4

The remaining lines, values ahead:

Row | normalised SPOT signal, Boehringer light units (BLU); mean over the file's lines of this peptide | Binder
34 | 46 | SSSIKLQDQDPSKP [YOR205C 26-39]
35 | 6670 | SKRKPSPPSQRRP [YPL141C 761-773]
36 | 28.6 | SDTKTVVPVTNKP [YML035C 237-249]
37 | 124 | SKAKDKARGNPEKP [YJL036W 11-24]
38 | 144 | SKAGDEERFLPNRP [YPR117W 1308-1321]
39 | 105 | SAIPLGTPEKGKP [YMR086W 669-681]
40 | 9.2 | SHEHEEPTYHPPKP [YMR231W 646-659]
41 | 49.3 | SEQDATDPASAKP [YIL115C 491-503]
42 | 30.6 | SGLDGILEDEPSRP [YPR117W 1516-1529]
43 | 219 | RYASSLPPNALKP [YGL191W 8-20]
44 | 60.4 | SISEQYYPEEPTKP [YGR019W 2-15]
45 | 78.6 | RVRKTHVPASKRP [YGL061C 212-224]
46 | 1200 | RVEMQSKKEDPNRP [YMR241W 239-252]
47 | 64.2 | SIPSKNTPDASKP [YLR335W 355-367]
48 | 92.9 | SFVDKRNPVDNKP [YOL008W 79-91]
49 | 49.4 | RTKAIHSHGAPFRP [YBL080C 12-25]
50 | 226 | SKEVTRASTSPPRP [YDR538W 41-54]
51 | 527 | RSSITNPVFNPRKP [YMR068W 271-284]
52 | 560 | SGKMRSRSSSPVRP [YKL185W 433-446]
53 | 15700 | SISSKIRPTPRKP [YER118C 2-14]
54 | 63.3 | SAKEEENPVEVKP [YPR112C 621-633]
55 | 148 | RSNKWRSIGTPSRP [YCR033W 218-231]
56 | 178 | SIYTSWARDNPSKP [YHR209W 240-253]
57 | 22800 | SFTIPFLPKIPQKP [YLR164W 23-36]
58 | 0 | SAKKAPIDYSPSRP [YDL025C 107-120]
